Molecular target: T1, Ac-DEVD-CHO
T1 chain: DEVD

B1: caspase-3 (protein)
chain: SGISLDNSYKMDYPEMGLCIIINNKNFHKSTGMTSRSGTDVDAANLRETFRNLKYEVRNKNDLTREEIVELMRDVSKEDHSKRSSFVCVLLSHGEEGIIFGTNGPVDLKKITNFFRGDRCRSLTGKPKLFIIQACRGTELDCGIETDSGVDDDMACHKIPVEADFLYAYSTAPGYYSWRNSKDGSWFIQSLCAMLKQYADKLEFMHILTRVNRKVATEFESFSFDATFHAKKQIPCIVSMLTKELYFYH
enzyme activity (caspase-3 cleavage of PPC, HPLC): completely blocked the enzyme activity

Source: patent publication US20080193431
